Experimental data: patent publication US5688671A, “Mutant aspartokinase gene” (Ajinomoto Co., Inc., priority 1993, dated 1997)

Key:
[1] = tested on: aspartokinase; test: Aspartokinase (AK) activity of cell-disrupted solutions of Corynebacterium glutamicum strains, with and without L-lysine/L-threonine; format: biochemical, Corynebacterium glutamicum (Brevibacterium lactofermentum); conditions: for 2 mM Lys + Thr (desensitization degree of inhibition): 2 mM lysine + threonine; for 2 mM Lys + Thr (desensitization degree of inhibition) / 5 mM Lys (desensitization degree of inhibition) / Specific activity / 5 mM Thr (desensitization degree of inhibition): plasmids introduced into AJ12036; for 5 mM Lys (desensitization degree of inhibition): lysine 5 mM; for Specific activity: Table 5; for 5 mM Thr (desensitization degree of inhibition): threonine 5 mM
Source text: When a wild type strain is used as a donor for the DNA fragment containing the AK gene, a DNA fragment containing a wild type AK gene can be obtained. The DNA fragment containing the gene for AK in which synergistic feedback inhibition by L-lysine and L-threonine is substantially desensitized can be obtained by using a mutant strain in which synergistic feedback inhibition on the AK activity by L-lysine and L-threonine is substantially desensitized. The mutant strain can be obtained, for example, from a group of cells subjected to an ordinary mutation treatment, ultraviolet light irradiation, or a treatment with a mutating agent such as N-methyl-N'-nitro-N-nitrosoguanidine (NTG). The AK activity can be measured by using a method described in Miyajima, R. et al., The Journal of Biochemistry (1968), 63(2), 139-148.
Strains were prepared by introducing the wild type AK plasmid p399AKYB and the mutant AK plasmid p399AK9B respectively into AJ12036 strain (FERM P-7559) as a wild type strain of Corynebacterium glutamicum (Brevibacterium lactofermentum). The genes were introduced into Corynebacterium by means of an electric pulse method. The aspartokinase activity was measured for Corynebacterium glutamicum (Brevibacterium lactofermentum) AJ12036 strain as a host, AJ12690 strain harboring the wild type AK plasmid, and AJ12691 (FERM P12918) strain harboring the mutant AK plasmid. The activity was measured in accordance with an ordinary method (see Miyajima, R. et al., The Journal of Biochemistry (1968) 63(2), 139-148). […]
Strains were prepared by introducing 8 kinds of the plasmids shown in Table 3 into AJ12036 strain (FERM P-7559) as a wild type strain of Corynebacterium glutamicum (Brevibacterium lactofermentum) in the same manner as Example 3. The AK activity was measured for each of the strains. […] The desensitization degree of inhibition by lysine and/or threonine was similar to those in Example 6.

[2] = tested on: Corynebacterium glutamicum (Brevibacterium lactofermentum) AJ12036; test: L-lysine productivity evaluated by cultivation in production medium; format: cell-based; conditions: plasmids introduced into AJ12036; cultivation as in Example 3
Method: The lysine productivity was evaluated by cultivation for the wild type strain AJ12036, the wild type AK plasmid-harboring strain AJ12690, and the mutant AK plasmid-harboring strain AJ12691 (FERM P-12918). The evaluation by cultivation was performed by inoculating the strains to a production medium (containing glucose 100 g, (NH4)2 SO4 55 g, KH2 PO4 1 g, MgSO4.7H2 O 1 g, soybean protein acid hydrolysate "Mamenou" (product of Ajinomoto Co., Ltd., trade name) 50 ml, FeSO4.7H2 O 10 mg, MnSO4.4H2 O 10 mg, nicotinic acid amide 5 mg, and CaCO3 50 g in 1 l of pure water, pH 8.0), and cultivating them with reciprocatory shaking at 31.5° C. for 72 hours. […] The plasmid-holding ratio upon completion of the cultivation was measured by using an index of chloramphenicol resistance as a drug resistance marker of the plasmid.
The lysine productivity was further evaluated by cultivation for the 9 kinds of these strains by using a method similar to that in Example 3.

[3] = tested on: AK; test: AK enzyme activity and inhibition by lysine/threonine in cell-free extracts of AK-deficient Escherichia coli Gif106M1 transformants; format: biochemical, Corynebacterium glutamicum; conditions: for Specific activity: Table 4; for 5 mM Lys + Thr (degree of desensitization of inhibition, activity-holding ratio): lysine 5 mM+threonine 5 mM; for 5 mM Lys + Thr (degree of desensitization of inhibition, activity-holding ratio) / 5 mM Lys (degree of desensitization of inhibition, activity-holding ratio) / 5 mM Thr (degree of desensitization of inhibition, activity-holding ratio): activity without addition = 100%, E. coli Gif106M1 extracts; for 5 mM Lys (degree of desensitization of inhibition, activity-holding ratio): lysine 5 mM; for 5 mM Thr (degree of desensitization of inhibition, activity-holding ratio): threonine 5 mM
Source text: Bacteriol. 112, 84-92 (1972), Theze, J. et al., J. […] It is known that most of genes of bacteria belonging to the genus Corynebacterium are expressed in Escherichia coli. In addition, the AK gene was ligated at a position downstream from lac promoter on pHSG399. Thus it was postulated that the gene could be expressed in Escherichia coli. […] Thus it was confirmed that AK from the bacteria belonging to the genus Corynebacterium was expressed and operated in cells of Escherichia coli. Subsequently, cell-free extracts were prepared from bacterial cells, and the enzyme activity of AK was measured. Upon measurement of the enzyme activity of AK, various concentrations of lysine and threonine were added to enzyme reaction solutions to investigate the degree of inhibition (FIG. 2). […] (Ki value: 0.4 mM→5.0 mM). […] Cell-free extracts were prepared, and enzymes were analyzed.

[4] = tested on: AK; test: Thermal stability of AK, treatment at 55° C. for 1.5 hour; format: biochemical, Corynebacterium glutamicum
Method: The activity-holding ratio after a treatment at 55° C. for 90 minutes is indicated by %.
Thermal stability was investigated as an index of stability of the enzyme structure constructed by the introduction of mutation. The treatment condition was set at 55° C. for 1.5 hour in which the activity of the wild type AK was about 80%.

[5] = E. coli Gif106M1 cell-free extracts

Row | Molecule | 2 mM Lys + Thr (desensitization degree of inhibition) [1] [%] | 5 mM Lys (desensitization degree of inhibition) [1] [%] | degree of desensitization of inhibition, ranking ([1]; lysine alone, threonine alone and concerted inhibition, plasmids in AJ12036) | Specific activity [1] [mU/mg protein] | 5 mM Thr (desensitization degree of inhibition) [1] [%] | Lys--HCl [2] [g/L] | concerted inhibition by lysine+threonine [3, 5] | degree of activation by threonine [3, 5] | inhibition by lysine alone as compared with the wild type [3, 5] | Specific activity [3, 5] [mU/mg protein] | specific activity relative to that of the wild type ([3]; fraction of wild type specific activity) | 5 mM Lys + Thr (degree of desensitization of inhibition, activity-holding ratio) [3] [%] | 5 mM Lys (degree of desensitization of inhibition, activity-holding ratio) [3] [%] | 5 mM Thr (degree of desensitization of inhibition, activity-holding ratio) [3] [%] | AK activity [3, 5] | thermal stability compared with the wild type ([4]; FIG. 6) | inhibition by threonine desensitized [3, 5] [%] | activity after thermal treatment (activity-holding ratio) [4]
1 | Pro: mutant aspartokinase 279 Ala→Pro, plasmid p399AKAP (p399AKAPB) (protein, UniProt P26512 1-421, looked up, variant A279P) Aspartokinase: MALVVQKYGGSSLESAERIRNVAERIVATKKAGNDVVVVCSAMGDTTDELLELAAAVNPVPPAREMDMLLTAGERISNALVAMAIESLGAEAQSFTGSQAGVLTTERHGNARIVDVTPGRVREALDEGKICIVAGFQGVNKETRDVTTLGRGGSDTTAVALAAALNADVCEIYSDVDGVYTADPRIVPNAQKLEKLSFEEMLELAAVGSKILVLRSVEYARAFNVPLRVRSSYSNDPGTLIAGSMEDIPVEEAVLTGVATDKSEAKVTVLGISDKPGEPAKVFRALADAEINIDMVLQNVSSVEDGTTDITFTCPRSDGRRAMEILKKLQVQGNWTNVLYDDQVGKVSLVGAGMKSHPGVTAEFMEALRDVNVNIELISTSEIRISVLIREDDLDAAARALHEQFQLGGEDEAVVYAGTGR | 85.2 | 77.5 | highest degree of desensitization of inhibition | 125.0 | 123.2 | 25.11 | desensitized | not less than 120% | mitigated | 2.8 | about 1/5 | 103.8 | 76.9 | 126.9 |  |  |  | 
2 | Ser: mutant aspartokinase 279 Ala→Ser, plasmid p399AKAS (p399AKASB) (protein, UniProt P26512 1-421, looked up, variant A279S) Aspartokinase: MALVVQKYGGSSLESAERIRNVAERIVATKKAGNDVVVVCSAMGDTTDELLELAAAVNPVPPAREMDMLLTAGERISNALVAMAIESLGAEAQSFTGSQAGVLTTERHGNARIVDVTPGRVREALDEGKICIVAGFQGVNKETRDVTTLGRGGSDTTAVALAAALNADVCEIYSDVDGVYTADPRIVPNAQKLEKLSFEEMLELAAVGSKILVLRSVEYARAFNVPLRVRSSYSNDPGTLIAGSMEDIPVEEAVLTGVATDKSEAKVTVLGISDKPGESAKVFRALADAEINIDMVLQNVSSVEDGTTDITFTCPRSDGRRAMEILKKLQVQGNWTNVLYDDQVGKVSLVGAGMKSHPGVTAEFMEALRDVNVNIELISTSEIRISVLIREDDLDAAARALHEQFQLGGEDEAVVYAGTGR | 37.0 | 55.0 |  | 406.8 | 114.4 | 5.72 | enhanced |  | equivalent to that in the wild type | 8.2 |  | 18.4 | 52.6 | 131.6 |  |  |  | 
3 | Asp: mutant aspartokinase 279 Ala→Asp, plasmid p399AKAD (protein, UniProt P26512 1-421, looked up, variant A279D) Aspartokinase: MALVVQKYGGSSLESAERIRNVAERIVATKKAGNDVVVVCSAMGDTTDELLELAAAVNPVPPAREMDMLLTAGERISNALVAMAIESLGAEAQSFTGSQAGVLTTERHGNARIVDVTPGRVREALDEGKICIVAGFQGVNKETRDVTTLGRGGSDTTAVALAAALNADVCEIYSDVDGVYTADPRIVPNAQKLEKLSFEEMLELAAVGSKILVLRSVEYARAFNVPLRVRSSYSNDPGTLIAGSMEDIPVEEAVLTGVATDKSEAKVTVLGISDKPGEDAKVFRALADAEINIDMVLQNVSSVEDGTTDITFTCPRSDGRRAMEILKKLQVQGNWTNVLYDDQVGKVSLVGAGMKSHPGVTAEFMEALRDVNVNIELISTSEIRISVLIREDDLDAAARALHEQFQLGGEDEAVVYAGTGR |  |  |  |  |  |  |  |  |  | 1.5 |  |  |  |  | inactivated |  |  | 
4 | Thr: mutant aspartokinase 279 Ala→Thr from AJ3463, plasmid p399AK9 (p399AK9B); SEQ ID NO: 4 and 6 (protein) MEEAVLTGVATDKSEAKVTVLGISDKPGETAKVFRALADAEINIDMVLQNVSSVEDGTTDITFTCPRADGRRAMEILKKLQVQGNWTNVLYDDQVGKVSLVGAGMKSHPGVTAEFMEALRDVNVNIELISTSEIRISVLIREDDLDAAARALHEQFQLGGEDEAVVYAGTGR | 78.3 | 58.7 |  | 374.4 | 109.1 | 24.25 |  |  | little improvement | 12.9 |  | 50.4 | 47.0 | 103.5 |  | higher stability than that of the wild type | 100 | 
5 | Wild type: wild type aspartokinase of Corynebacterium glutamicum ATCC 13869, plasmid p399AKY (p399AKYB); SEQ ID NO: 3 and 5 (protein) MEEAVLTGVATDKSEAKVTVLGISDKPGEAAKVFRALADAEINIDMVLQNVSSVEDGTTDITFTCPRADGRRAMEILKKLQVQGNWTNVLYDDQVGKVSLVGAGMKSHPGVTAEFMEALRDVNVNIELISTSEIRISVLIREDDLDAAARALHEQFQLGGEDEAVVYAGTGR | 6.2 | 52.7 |  | 316.4 | 86.8 | 0.00 |  |  |  | 15.3 |  | 9.2 | 42.3 | 62.3 |  |  |  | about 80%
